Source: patent publication US20050142101A1

Tests used:
[1] = biological target: CXCL12 (SDF-1α) (Homo sapiens (Human)) (UniProt P48061)
[2] = biological target: CCL11 (eotaxin) (Homo sapiens (Human)) (UniProt P51671)
[3] = biological target: CCL14[9-74] (human) (UniProt Q16627)

## porcine kidney DPP IV/CD26 (from UniProt P22411) (enzyme)
[1]
  CD26/DPP IV processing in vitro, MALDI mass spectrometry (time to complete processing): 10 min
[2]
  CD26/DPP IV processing in vitro, MALDI mass spectrometry (time to complete processing): 1 h
[3]
  CD26/DPP IV processing in vitro, MALDI mass spectrometry (time to complete processing): 12 h
